Where “and” joins values, the source holds several entries; their conditions need not be identical. Equal values may be shown once. Read-outs that look alike come from different tables or passages of the source.
Tests used:
human C3b (human) [1] = target: human C3b (human) (UniProt P01024); experiment: immunostaining of cells or tissue
human C3b (human) [2] = target: human C3b (human) (UniProt P01024); experiment: immunostaining of cells or tissue; remark: listed apart in the source
human C3b (human) [3] = target: human C3b (human) (UniProt P01024); experiment: immunostaining of cells or tissue; remark: listed apart in the source
human C3b (human) [4] = target: human C3b (human) (UniProt P01024); experiment: immunostaining of cells or tissue; remark: listed apart in the source
human C3b (human) [5] = target: human C3b (human) (UniProt P01024); experiment: immunostaining of cells or tissue; remark: listed apart in the source
human C3b (human) [6] = target: human C3b (human) (UniProt P01024); experiment: immunostaining of cells or tissue; remark: listed apart in the source
[7] = target: C3-C3b receptor (human (endogenous in Raji, Daudi and HPL)); experiment: immunostaining of cells or tissue
[8] = target: C3-C3b receptor (human (endogenous in Raji, Daudi and HPL)); experiment: rosette formation
[9] = target: C3-C3b receptor (human (endogenous in Raji, Daudi and HPL)); experiment: immunostaining of cells or tissue; remark: listed apart in the source

Sequence of UniProt P01024 (P01024 23-667, chain 1 of 2): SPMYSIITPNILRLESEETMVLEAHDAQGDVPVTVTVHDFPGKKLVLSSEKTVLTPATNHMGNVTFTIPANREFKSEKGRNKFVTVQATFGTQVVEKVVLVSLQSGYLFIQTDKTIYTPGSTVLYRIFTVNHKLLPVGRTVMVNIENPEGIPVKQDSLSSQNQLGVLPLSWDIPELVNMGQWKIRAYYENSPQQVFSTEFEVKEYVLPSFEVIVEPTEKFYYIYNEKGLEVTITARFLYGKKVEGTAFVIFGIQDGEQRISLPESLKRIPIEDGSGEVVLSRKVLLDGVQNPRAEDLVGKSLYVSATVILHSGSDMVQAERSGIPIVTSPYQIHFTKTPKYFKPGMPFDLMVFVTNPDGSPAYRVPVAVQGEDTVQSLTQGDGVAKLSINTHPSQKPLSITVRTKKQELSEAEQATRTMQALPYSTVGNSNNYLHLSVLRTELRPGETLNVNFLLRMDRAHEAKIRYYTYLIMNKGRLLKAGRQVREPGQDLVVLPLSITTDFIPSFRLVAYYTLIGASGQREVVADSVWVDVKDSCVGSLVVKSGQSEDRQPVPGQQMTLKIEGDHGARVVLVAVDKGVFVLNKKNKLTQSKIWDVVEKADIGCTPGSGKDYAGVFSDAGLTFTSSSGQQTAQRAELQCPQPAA
Sequence of UniProt P01024 (P01024 749-1663, chain 2 of 2): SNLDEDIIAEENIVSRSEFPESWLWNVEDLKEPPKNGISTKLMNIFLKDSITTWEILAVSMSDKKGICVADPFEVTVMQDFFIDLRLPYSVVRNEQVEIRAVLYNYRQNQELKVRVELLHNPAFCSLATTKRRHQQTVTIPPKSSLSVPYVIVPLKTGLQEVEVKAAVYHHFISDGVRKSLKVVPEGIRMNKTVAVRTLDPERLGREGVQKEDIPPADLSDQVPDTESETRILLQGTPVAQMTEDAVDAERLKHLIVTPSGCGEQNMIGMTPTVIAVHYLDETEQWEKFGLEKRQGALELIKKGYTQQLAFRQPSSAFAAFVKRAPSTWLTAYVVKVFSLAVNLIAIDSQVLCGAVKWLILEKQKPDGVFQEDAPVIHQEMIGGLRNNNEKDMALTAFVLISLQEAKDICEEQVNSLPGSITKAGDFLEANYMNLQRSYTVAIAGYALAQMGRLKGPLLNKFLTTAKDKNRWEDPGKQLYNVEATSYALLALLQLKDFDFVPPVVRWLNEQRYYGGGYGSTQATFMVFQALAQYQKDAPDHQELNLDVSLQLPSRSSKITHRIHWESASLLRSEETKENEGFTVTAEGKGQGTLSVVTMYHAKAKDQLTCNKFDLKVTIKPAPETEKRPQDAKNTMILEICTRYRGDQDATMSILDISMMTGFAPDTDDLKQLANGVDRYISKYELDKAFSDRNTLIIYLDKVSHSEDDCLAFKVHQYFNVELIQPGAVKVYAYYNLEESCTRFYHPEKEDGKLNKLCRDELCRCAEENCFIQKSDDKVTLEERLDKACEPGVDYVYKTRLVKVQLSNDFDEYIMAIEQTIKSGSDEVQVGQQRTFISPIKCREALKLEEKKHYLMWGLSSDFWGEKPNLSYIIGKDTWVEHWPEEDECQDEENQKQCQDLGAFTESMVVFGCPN

| Substance | percent immunofluorescence positive cells (human C3b (human) [1]) [%] | percent immunofluorescence positive cells (human C3b (human) [2]) [%] | percent immunofluorescence positive cells (human C3b (human) [3]) [%] | percent immunofluorescence positive cells (human C3b (human) [4]) [%] | percent immunofluorescence positive cells (human C3b (human) [5]) [%] | percent immunofluorescence positive cells (human C3b (human) [6]) [%] | percent cells binding [7] [%] | percent immunofluorescence positive cells [7] [%] | percent rosette-forming cells [8] | percent cells binding [9] [%] | percent immunofluorescence positive cells [9] [%] |
| --- | --- | --- | --- | --- | --- | --- | --- | --- | --- | --- | --- |
| factor B (natural protein) | 89 | 95 | 5 | 2 | 5 | 93 |  |  |  |  |  |
| human C3b (from UniProt P01024 23-667; P01024 749-1663) (domain or fragment) |  |  |  |  |  |  | 100 | 98 | 100% and 98% | 90 |  |
| human complement component C3 (from UniProt P01024 23-667; P01024 672-1663) (natural protein) |  |  |  |  |  |  | 100 | 100 |  | 90 | 100 |

From PMC2190117
